In this assay the target is Claudin 18 splice variant 2 (CLDN18.2) (human). Nature of the assay: cell-based or functional assay.

From patent EP3670537A1 come the findings set out here.

Bounds are passed on as bounds.

IMAB362 (antibody) yielded an in vitro EC50 concentration, CDC on CLDN18.2-transfected CHO-K1 cells of 0.5 mg/L; an in vitro EC80-100, total cytotoxicity assay on NUGC-4 cells with healthy donor PBMCs (E:T 40:1) and 25% serum of 200 mg/L; a lysis rate, CDC on CLDN18.2-transfected CHO-K1 cells, pooled sera from healthy controls with 0.5 µg/ml IMAB362 of 64.5%; a lysis rate, CDC on CLDN18.2-transfected CHO-K1 cells, pre-infusion serum of patient 0204 with 0.5 µg/ml fresh IMAB362 of 93.9%. The substance further returned a specific killing of NUGC-4 cells by IMAB362 in patient serum 28-32 days after administration, all dose groups above 48%.
